± gives the standard deviation.
Test: protein stability index of a GFP-peptide fusion (GPS, HEK-293T) (PSI 1-6); higher = more stable
[1] = treatment: DMSO, c terminus: a fixed tail appended
[2] = treatment: MLN4924 1 uM, 8 h, c terminus: a fixed tail appended
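Note: 24-mer peptide tiles fused after GFP, lentivirally expressed, FACS-sorted into six equal bins by GFP/DsRed ratio, decoded by Illumina sequencing, PSI is the read-weighted mean bin number.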

| Sequence | protein stability index [1] | protein stability index [2] | protein stability index (treatment: DMSO, c terminus: native) | protein stability index (treatment: MLN4924 1 uM, 8 h, c terminus: native) |
| --- | --- | --- | --- | --- |
| APQNLTRWTFEKACHPFLLGPPLV [TOR1AIP2] | 2.4 ± 0.21 | 2.08 ± 0.18 | – | – |
| SELRRTMQALEIELQSQLSMKASL [KRT17] | 2.46 ± 0.21 | 2.23 ± 0.2 | – | – |
| SSVSPAVSKASSRRSSFSMEEES [TFE3] | – | – | 5.44 ± 0.14 | 5.28 ± 0.17 |
| LRDRAERIASRAIDNAADLLIFGK [SNX8] | 3.28 ± 0.17 | 3.6 ± 0.31 | – | – |
| QCRERREHPNLVRDHVETELLKEA [TEKT4] | 4.77 ± 0.19 | 4.97 ± 0.23 | – | – |
| ERIVVAGNNEDVSFSRPADLDLIQ [MFF] | 4.96 ± 0.075 | 4.21 ± 0.32 | – | – |
| LFDLMRRMLEFDPAQRITLAEALL [CLK3] | 2.05 ± 0.6 | 2.19 ± 0.11 | – | – |
| SMDNTPHTPTPFKNALEKYGPLKP [MYBL2] | 3.48 ± 0.092 | 3.7 ± 0.16 | – | – |
| CEMDWSDKMEAYNIDETCGRHHSQ [TEKT4] | 4.53 ± 0.15 | 4.56 ± 0.13 | – | – |
| PMVRKRSVSNSTQTSSSSSQSETS [DLC1] | 5.26 ± 0.21 | 5.3 ± 0.33 | – | – |
| LRSFCAWQRGLNTPEDSDPDHFDT [ADAMTS4] | 4.12 ± 0.27 | 4.24 ± 0.2 | – | – |
| TQQELRKIREKEEWIKLDYHRRHN [IQUB] | 3.88 ± 0.29 | 3.82 ± 0.52 | – | – |
| PSMVSGGYVANSSNCISGVCSVRG [KRT71] | 3.35 ± 0.082 | 3.4 ± 0.23 | – | – |
| IVITGDADIDHDQALAQAIKEAKE [EPB41L3] | 2.85 ± 0.58 | 3.45 ± 0.48 | – | – |
| DSKPESALGAPSKSPSSPQAAFTQ [TBX5] | 5.18 ± 0.36 | 5.21 ± 0.19 | – | – |
| AWLPQAKVPFSQEIKDLILPKISD [PI4K2A] | 2.72 ± 0.059 | 2.78 ± 0.18 | – | – |
| ANHTHTFYGHSHHSHHGHPSHQSH [C10orf62] | 3.51 ± 0.12 | 3.46 ± 0.23 | – | – |
| EMDWAQMACHRCLVYLGDLSRYQN [SMG5] | 2.36 ± 0.4 | 2.17 ± 0.18 | – | – |

| Sequence | protein stability index [1] | protein stability index [2] | protein stability index (treatment: DMSO, c terminus: native) | protein stability index (treatment: MLN4924 1 uM, 8 h, c terminus: native) |
| --- | --- | --- | --- | --- |
| RNQVVSSTNGELNVDDPTGAHSNA [CSNK1G1] | 5.25 ± 0.12 | 5.22 ± 0.18 | – | – |
| GCANNLLVHHRAAHSNEILIFSVQ [KLHDC2] | 2.49 ± 1 | 2.67 ± 0.58 | – | – |
| ILNLKKKECKDRGFEYDGKINAWD [NLN] | 2.97 ± 0.26 | 3.43 ± 0.6 | – | – |
| PLLSGVAQEVSPCGPPSLGAVLAL [MFSD9] | 2.4 ± 0.35 | 2.42 ± 0.18 | – | – |
| GFGSKNTAFCTHVFPETAFIAVTS [TBX5] | 2.28 ± 0.42 | 2.09 ± 0.3 | – | – |
| NILVTSGGTVKLADFGLARIYSYQ [CDK4] | 2.45 ± 0.81 | 2.13 ± 0.37 | – | – |
| EGSIWRGAQMEKEWARALETRDWG [ZSWIM9] | 3.37 ± 0.3 | 3.42 ± 0.21 | – | – |
| ARLRHQELFRLRGIKAQVALRLAE [NOP53] | 2.22 ± 0.15 | 2.22 ± 0.31 | – | – |
| WELHSLRHCDDDGRTENGALAPKQ [ZNF24] | 4.91 ± 0.16 | 4.95 ± 0.19 | – | – |
| QENAIQTMELRNYFSLYCLHQETQ [SNX8] | 2.58 ± 0.31 | 2.52 ± 0.4 | – | – |
| DVEDLQRDKARLLREKVEFLRSLR [NFE2L1] | 3.33 ± 0.48 | 3.18 ± 0.34 | – | – |
| PGAGLRRPTYTPPSIMPQKHWVYV [ZBTB22] | 2.26 ± 0.051 | 2.04 ± 0.27 | – | – |
| LYTPSNEHFGIVPLEAMYMQCPVI [ALG2] | 2.28 ± 0.098 | 2.39 ± 0.35 | – | – |
| RKLFGQESGPSAEKYSVATQLFIG [FUNDC2] | 2.61 ± 0.18 | 2.47 ± 0.26 | – | – |
| GNLEVGEPQSEPVRVLDMVAKLES [FBXO34] | 5.01 ± 0.34 | 4.87 ± 0.2 | – | – |
| MEEVISPRQVSYTPQHHEKQYAMQ [IQUB] | 4.38 ± 0.15 | 4.31 ± 0.29 | – | – |
| KQQKDPSEEAAVLQYASLVGQKCS [ATE1] | 4.84 ± 0.23 | 4.77 ± 0.2 | – | – |
| GGGYSSVRYSDCCERVVINVSGLR [KCNA4] | 2.23 ± 0.26 | 2.34 ± 0.29 | – | – |

Source: the supplement of paper PMC10567573
